Laboratory results: paper PMC6426604, “First Betalain-Producing Bacteria Break the Exclusive Presence of the Pigments in the Plant Kingdom” (mBio, 2019)

Tested on: N[C@@H](Cc1ccc(O)c(O)c1)C(=O)O
Assay: purified protein
Format: biochemical, Gluconacetobacter diazotrophicus
Details: 50 mM sodium phosphate pH 6.5, 10 mM sodium ascorbate, 25 °C, air

Sequence of GdDODA (4,5-DODA from Gluconacetobacter diazotrophicus) (Gluconacetobacter diazotrophicus PA1 5) (chain, as listed by the source): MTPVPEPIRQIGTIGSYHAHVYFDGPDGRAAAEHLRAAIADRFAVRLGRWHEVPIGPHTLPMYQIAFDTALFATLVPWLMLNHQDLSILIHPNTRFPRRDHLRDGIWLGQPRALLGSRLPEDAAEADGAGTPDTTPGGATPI

Substance “GdDODA (4,5-DODA from Gluconacetobacter diazotrophicus) (Gluconacetobacter diazotrophicus PA1 5)” has a Km of 1360 ± 310 µM and a kcat of 0.00833 ± 0.000317 s⁻¹.
